The assay deals with T1, human ORAI1 (65-301) (Homo sapiens, UniProt Q96D31, E106Q/N223A).
T1 construct: human ORAI1 (65-301) with an N-terminal FLAG tag; made in house; host or cells: Pichia pastoris GS115 (microsomal membranes)
Description: Pichia membrane flotation assay, membranes containing ORAI1 (65-301). The assay is classed as binding. Particulars: sucrose gradient, Western blotting. On the procedure: A membrane flotation assay was used to evaluate binding of these recombinant STIM 1 proteins to ORAI1. For these experiments ORAI1 (65-301) was expressed, an N-terminally truncated ORAI1 protein that forms functional Ca^2+ channels in mammalian cells (Li, Z., et al., J Biol Chem 282, 29448-29456 (2007)), in the yeast Pichia pastoris. Microsomal membranes were prepared from P pastoris expressing ORAI1 (65-301), layered at the bottom of a discontinuous sucrose gradient, and centrifuged. After centrifugation, the recombinant ORAI 1 was recovered near the top of the gradient in the fraction visually identified as containing membranes (FIG. 2A), as expected for an integral membrane protein.
STIM 1, ORAI 1, and D3 cpV/D4 cpV expression constructs were engineered as described herein. Recombinant STIM 1 fragments were expressed in E coli, purified, and characterized by CD spectroscopy and SEC-MALLS. Binding of STIM 1 fragments to ORAI1 channels in their normal bilayer environment was assessed in a flotation assay, using microsomal membranes prepared from the yeast P pastoris and containing human ORAI1 (65-301). Binding of STIM1 fragments to recombinant ORAI^CT was assessed in a pulldown assay using GST-tagged ORAI1^CT.
P pastoris strain GS115 was transformed with SalI-linearized pPIC3.5K-ORAI1 by electroporation and selected on plates lacking histidine. H is transformants were further grown in the presence of 0.25-4 mg/mL G418 to select for yeast that had integrated multiple copies of pPIC3.5K into the genome. Selected colonies capable of growth on 0.5-4 mg/mL G418 were grown in small-scale culture, induced with methanol as detailed below, and their level of ORAI expression determined by Western blotting for the FLAG tag. P pastoris transformants were grown in minimal dextrose medium lacking histidine and induced with 0.5% methanol for 6-18 h. Cells were pelleted at 3,000×g for 15 min at 4° C. and resuspended in breaking buffer containing 50 mM sodium phosphate, 1 mM TCEP, 1 mM EDTA, 5% glycerol and complete protease inhibitor cocktail (Roche). […]

T1 sequence (Q96D31 65-301 E106Q/N223A): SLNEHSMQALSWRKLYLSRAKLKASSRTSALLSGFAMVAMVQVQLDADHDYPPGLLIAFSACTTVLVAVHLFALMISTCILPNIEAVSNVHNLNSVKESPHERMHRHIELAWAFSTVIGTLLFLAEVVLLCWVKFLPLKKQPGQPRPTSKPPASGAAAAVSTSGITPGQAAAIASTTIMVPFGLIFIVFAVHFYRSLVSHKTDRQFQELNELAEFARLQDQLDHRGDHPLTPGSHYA

With “STIM1 (233-463): truncated mouse STIM1 cytoplasmic fragment, residues 233-463, His-tagged recombinant protein”, the “binding to ORAI1 in membrane flotation” value is reported as “did not bind detectably”.

Consider “STIM1 (233-498): truncated mouse STIM1 cytoplasmic fragment, residues 233-498, His-tagged recombinant protein”, for which the “binding to ORAI1 in membrane flotation” value is on record as “clearly bound ORAI”. The result for “STIM1^CT: cytoplasmic region of STIM1, mouse residues 233-685, His-tagged recombinant protein expressed in E coli” reads “rose with the membranes into the upper part of the gradient”.

Source of the values: patent publication US20120264231A1, “ASSAY FOR ORAI CALCIUM CHANNEL REGULATORS” (IMMUNE DISEASE INSTITUTE, INC., priority 2009, published 2012).
